As a reminder, the Kd is a measure of binding affinity in units of concentration.

Test [1] concerns the target cyno CD21 protein (cynomolgus monkey). The test is described as follows: SPR (Biacore). A general note: SPR reads the build-up and loss of mass on a sensor chip optically.
Test [2] has as its target T1, human CD21 protein (human, UniProt P20023 21-971, limits assumed).
T1 construct: the Biacore set-up is not described; also called huCD21; CR2
T1 sequence (looked up): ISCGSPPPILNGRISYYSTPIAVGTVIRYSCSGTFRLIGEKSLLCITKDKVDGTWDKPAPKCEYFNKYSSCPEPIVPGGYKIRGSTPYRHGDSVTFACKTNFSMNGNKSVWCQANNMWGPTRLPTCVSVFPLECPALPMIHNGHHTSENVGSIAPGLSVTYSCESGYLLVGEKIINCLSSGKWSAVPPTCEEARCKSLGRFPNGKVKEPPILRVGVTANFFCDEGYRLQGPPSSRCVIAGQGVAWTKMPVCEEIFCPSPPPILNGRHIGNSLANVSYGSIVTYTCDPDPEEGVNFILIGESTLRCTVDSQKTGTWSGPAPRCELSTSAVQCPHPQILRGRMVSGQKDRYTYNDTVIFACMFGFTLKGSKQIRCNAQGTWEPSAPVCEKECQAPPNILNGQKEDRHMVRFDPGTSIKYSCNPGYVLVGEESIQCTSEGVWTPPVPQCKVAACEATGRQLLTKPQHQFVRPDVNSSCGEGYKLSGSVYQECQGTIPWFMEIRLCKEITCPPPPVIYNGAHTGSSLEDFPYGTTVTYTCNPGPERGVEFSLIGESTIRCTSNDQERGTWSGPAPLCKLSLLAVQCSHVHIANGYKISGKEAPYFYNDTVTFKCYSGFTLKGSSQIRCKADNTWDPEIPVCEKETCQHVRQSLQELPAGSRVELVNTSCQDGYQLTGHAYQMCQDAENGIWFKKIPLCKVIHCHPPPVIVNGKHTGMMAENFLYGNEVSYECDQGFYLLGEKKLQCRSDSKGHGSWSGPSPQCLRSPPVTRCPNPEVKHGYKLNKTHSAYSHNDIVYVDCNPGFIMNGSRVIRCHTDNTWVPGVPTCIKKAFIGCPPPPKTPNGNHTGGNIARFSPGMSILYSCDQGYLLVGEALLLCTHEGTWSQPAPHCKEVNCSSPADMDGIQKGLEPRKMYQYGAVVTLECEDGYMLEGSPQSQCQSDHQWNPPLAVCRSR
The test is described as follows: SPR (Biacore).

The target in test [3] is T2, human CD21 on Raji B cells or primary B cells (human, UniProt P20023 21-1033).
T2 sequence (looked up): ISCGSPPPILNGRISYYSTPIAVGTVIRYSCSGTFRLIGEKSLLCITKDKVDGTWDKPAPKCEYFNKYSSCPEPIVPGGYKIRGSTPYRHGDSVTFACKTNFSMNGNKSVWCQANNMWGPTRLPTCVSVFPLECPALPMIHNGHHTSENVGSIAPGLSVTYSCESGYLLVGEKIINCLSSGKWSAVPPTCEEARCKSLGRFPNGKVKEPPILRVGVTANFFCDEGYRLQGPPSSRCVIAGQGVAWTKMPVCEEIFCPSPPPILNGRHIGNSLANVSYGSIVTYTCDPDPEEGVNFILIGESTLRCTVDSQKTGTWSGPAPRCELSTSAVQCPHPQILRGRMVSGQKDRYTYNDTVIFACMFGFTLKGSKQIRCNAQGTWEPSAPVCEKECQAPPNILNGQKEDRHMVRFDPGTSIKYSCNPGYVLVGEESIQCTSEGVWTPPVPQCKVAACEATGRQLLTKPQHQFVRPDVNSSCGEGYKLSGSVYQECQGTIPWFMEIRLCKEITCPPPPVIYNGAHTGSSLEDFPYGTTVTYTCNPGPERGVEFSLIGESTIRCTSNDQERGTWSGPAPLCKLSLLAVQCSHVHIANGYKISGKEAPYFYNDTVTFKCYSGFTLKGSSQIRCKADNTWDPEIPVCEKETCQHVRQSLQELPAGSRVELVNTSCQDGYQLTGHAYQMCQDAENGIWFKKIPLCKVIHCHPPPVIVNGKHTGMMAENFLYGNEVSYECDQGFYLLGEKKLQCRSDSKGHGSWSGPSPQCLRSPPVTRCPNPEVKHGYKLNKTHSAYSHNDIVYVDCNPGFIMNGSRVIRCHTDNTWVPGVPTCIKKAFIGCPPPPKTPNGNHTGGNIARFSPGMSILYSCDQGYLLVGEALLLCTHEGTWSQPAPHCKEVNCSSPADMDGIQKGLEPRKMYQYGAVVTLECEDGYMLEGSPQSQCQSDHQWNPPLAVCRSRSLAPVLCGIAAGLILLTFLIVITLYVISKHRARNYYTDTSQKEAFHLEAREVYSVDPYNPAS
The test is described as follows: cell-based or functional assay.

Test [4] addresses T2, human CD21 on Raji B cells or primary B …. Put plainly: cell-based or functional assay. The source holds these as a separate data set.
The target of test [5] is cyno CD21 protein (cynomolgus monkey). Put plainly: affinity KD; method not restated (Biacore elsewhere).
The target in test [6] is T1, human CD21 protein. The test is described as above.
A further test addresses insulin (UniProt P01308). The test is described as follows: polyreactivity ELISA on coated insulin; third number of the cell. In general terms: ELISA stands for enzyme-linked immunosorbent assay.

Read-outs that look alike come from different tables or passages of the source.

insulin, sequence (P01308 25-54 limits assumed, chain 1 of 2): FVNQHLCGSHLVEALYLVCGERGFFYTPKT
insulin, sequence (P01308 90-110 limits assumed, chain 2 of 2): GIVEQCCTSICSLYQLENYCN

B1: Ab416 (antibody, human IgG1, kappa, V domains shown)
VH: QVQLVQSGAEVKKPGSSVKVSCKASGGTFSSYAISWVRQAPGQGLEWMGRIIPILGIANYAQKFQGRVTITADKSTSTAYMELSSLRSEDTAVYYCAREDDSSGYYQDWGQGTLVTVSS
VL: EIVMTQSPATLSVSPGERATLSCRAGQSINSYLAWYQQKPGQAPRLLIYDASTRATGIPARFSGSGSGTEFTLTISSLQSEDFAVYYCQQYEYWYTFGQGTKLEIKR
notes: IgG1
For the molecule B1, the Kd in test [1] worked out at 9.13 nM; with human CD21 protein [2], 0.78 nM; in test [5], 9.73 nM; in the test with human CD21 protein [6], 0.78 nM. Also, the “pAKT inhibition, IC50, nM; Primary B cells” value in test [3] and in test [4] was 14.6 nM each time. Besides, the “pAKT inhibition, IC50, nM; Raji B cells” value in test [3] and in test [4] was 8.59 nM throughout. The insulin-binding score (ratio to buffer well) with insulin was found to be 2.

B2: Ab630 (antibody, human IgG1, kappa, V domains shown)
VH: QVQLVQSGAEVKKPGSSVKVSCKASGGTFSSYAISWVRQAPGQGLEWMGRIIPILGIANYAQKFQGRVTITADKSTSTAYMELSSLRSEDTAVYYCAREEDISGYYQDWGQGTLVTVSS
VL: DIVMTQSPATLSVSPGERATLSCRAGQSISSYLAWYQQKPGQAPRLLIYDASSRATGIPARFSGSGSGTEFTLTISSLQSEDFAVYYCQQYEYWYSFGQGTKLEIKR
notes: IgG1
As for B2, the Kd amounted to 0.09 nM in test [5] and 0.01 nM with human CD21 protein [6].

B3: Ab631 (antibody, human IgG1, kappa, V domains shown)
VH: QVQLVQSGAEVKKPGSSVKVSCKASGGTFSSYAISWVRQAPGQGLEWMGRIIPILGIANYAQKFQGRVTITADKSTSTAYMELSSLRSEDTAVYYCAREEDISGYYQDWGQGTLVTVSS
VL: EIVMTQSPATLSVSPGERATLSCRAGQKISSYLAWYQQKPGQAPRLLIYDASSRATGIPARFSGSGSGTEFTLTISSLQSEDFAVYYCQQYEYWYSFGQGTKLEIKR
notes: IgG1
Turning to B3, the Kd in test [5] was 0.19 nM; with human CD21 protein [6], 0.03 nM.

B4: Ab628 (antibody, human IgG1, kappa, V domains shown)
VH: QVQLVQSGAEVKKPGSSVKVSCKASGGTFSSYAISWVRQAPGQGLEWMGRIIPILGIANYAQKFQGRVTITADKSTSTAYMELSSLRSEDTAVYYCAREEDISGYYQDWGQGTLVTVSS
VL: EIVMTQSPATLSVSPGERATLSCRAGQSISHYLAWYQQKPGQAPRLLIYDASTRATGIPARFSGSGSGTEFTLTISSLQSEDFAVYYCQQYEYWYSFGQGTKLEIKR
notes: IgG1
On to B4, for which, in test [4], the “pAKT inhibition, IC50, nM; Primary B cells” value came to 11.7 nM. Also, the Kd in test [5] came to 0.11 nM; with human CD21 protein [6], 0.01 nM.

B5: Ab633 (antibody, human IgG1, kappa, V domains shown)
VH: QVQLVQSGAEVKKPGSSVKVSCKASGGTFSSYAISWVRQAPGQGLEWMGRIIPILGIANYAQKFQGRVTITADKSTSTAYMELSSLRSEDTAVYYCAREEDISGYYQDWGQGTLVTVSS
VL: EIVMTQSPATLSVSPGERATLSCRAGQSISRYLAWYQQKPGQAPRLLIYDASSRATGIPARFSGSGSGTEFTLTISSLQSEDFAVYYCQQYEYWYSFGQGTKLEIKR
notes: IgG1
Consider B5, for which the Kd in test [5] was 0.12 nM; in the test with human CD21 protein [6], 0.02 nM.

B6: Ab629 (antibody, human IgG1, kappa, V domains shown)
VH: QVQLVQSGAEVKKPGSSVKVSCKASGGTFSSYAISWVRQAPGQGLEWMGRIIPILGIANYAQKFQGRVTITADKSTSTAYMELSSLRSEDTAVYYCAREEDISGYYQDWGQGTLVTVSS
VL: EIVMTQSPATLSVSPGERATLSCRAGQSISRYLAWYQQKPGQAPRLLIYDASTRATGIPARFSGSGSGTEFTLTISSLQSEDFAVYYCQQYEYWYSFGQGTKLEIKR
notes: IgG1
Regarding B6, the results for the Kd (in test [5]; in the test with human CD21 protein [6]) were 0.1 nM and 0.02 nM, respectively.

B7: Ab627 (antibody, human IgG1, kappa, V domains shown)
VH: QVQLVQSGAEVKKPGSSVKVSCKASGGTFSSYAISWVRQAPGQGLEWMGRIIPILGIANYAQKFQGRVTITADKSTSTAYMELSSLRSEDTAVYYCAREEDISGYYQDWGQGTLVTVSS
VL: EIVMTQSPATLSVSPGERATLSCRAGQKISSYLAWYQQKPGQAPRLLIYDASTRATGIPARFSGSGSGTEFTLTISSLQSEDFAVYYCQQYEYWYSFGQGTKLEIKR
notes: IgG1
On to B7, for which the Kd is 0.15 nM in test [5] and 0.02 nM with human CD21 protein [6].

B8: Ab419 (antibody, human IgG1, kappa, V domains shown)
VH: QVQLVQSGAEVKKPGSSVKVSCKASGGELQTLAISWVRQAPGQGLEWMGRIIPILGIANYAQKFQGRVTITADKSTSTAYMELSSLRSEDTAVYYCAREDDISGYYQDWGQGTLVTVSS
VL: EIVMTQSPATLSVSPGERATLSCRAGQSINSHLAWYQQKPGQAPRLLIYDASTRATGIPARFSGSGSGTEFTLTISSLQSEDFAVYYCQQYEYWYTFGQGTKLEIKR
notes: IgG1
Take B8: the Kd came out at 0.21 nM in test [1], 2.38 nM with human CD21 protein [2], 0.21 nM in test [5] and 2.38 nM with human CD21 protein [6]. The “pAKT inhibition, IC50, nM; Primary B cells” value in test [3] and in test [4] was 47.8 nM each time. Also, the “pAKT inhibition, IC50, nM; Raji B cells” value in test [3] and in test [4] was 11.2 nM each time. In addition, in the test with insulin, the insulin-binding score (ratio to buffer well) turned out to be 2.

B9: Ab417 (antibody, human IgG1, kappa, V domains shown)
VH: QVQLVQSGAEVKKPGSSVKVSCKASGGELQDLAISWVRQAPGQGLEWMGRIIPILGIANYAQKFQGRVTITADKSTSTAYMELSSLRSEDTAVYYCAREDDISGYYQDWGQGTLVTVSS
VL: EIVMTQSPATLSVSPGERATLSCRAGQSINSYLAWYQQKPGQAPRLLIYDASTRATGIPARFSGSGSGTEFTLTISSLQSEDFAVYYCQQYEYWYTFGQGTKLEIKR
notes: IgG1
For the molecule B9, the Kd in test [1] is 0.08 nM; in the test with human CD21 protein [2], 0.02 nM; in test [5], 0.08 nM; with human CD21 protein [6], 0.02 nM. The “pAKT inhibition, IC50, nM; Primary B cells” value in test [3] and in test [4] was 3.94 nM throughout. The “pAKT inhibition, IC50, nM; Raji B cells” value in test [3] and in test [4] was 8.91 nM throughout. Further, the insulin-binding score (ratio to buffer well) in the test with insulin came out at 2.

B10: Ab632 (antibody, human IgG1, kappa, V domains shown)
VH: QVQLVQSGAEVKKPGSSVKVSCKASGGTFSSYAISWVRQAPGQGLEWMGRIIPILGIANYAQKFQGRVTITADKSTSTAYMELSSLRSEDTAVYYCAREEDISGYYQDWGQGTLVTVSS
VL: EIVMTQSPATLSVSPGERATLSCRAGQSISHYLAWYQQKPGQAPRLLIYDASSRATGIPARFSGSGSGTEFTLTISSLQSEDFAVYYCQQYEYWYSFGQGTKLEIKR
notes: IgG1
B10: the “pAKT inhibition, IC50, nM; Primary B cells” value in test [4] is 4.43 nM. The values for the Kd (in test [5]; in the test with human CD21 protein [6]) were 0.08 nM and 0.01 nM, respectively.
